The target of test [1] is VpOmpM1 (OmpM1 from Veillonella parvula), full length, expressed in E. coli (Veillonella parvula). Briefly: cryo-EM structure.
The target in test [2] is VpOmpM1 stalk region (residues 22-107), soluble construct (Veillonella parvula). Briefly: crystal structure.

Broadly, the stoichiometry N is the number of molecules, sites or subunits per partner or assembly.

In turn, “VpOmpM1 (OmpM1 from Veillonella parvula), full length, expressed in E. coli (natural protein)” gave a stoichiometry N in test [1] of 3.
For “VpOmpM1 stalk region (residues 22-107), soluble construct (domain or fragment)”, the stoichiometry N in test [2] stood at 3.

Source of the values: paper doi:10.1101/2023.08.14.552755.
